According to publication PMC4417118 (Genome Research, 2015):

B1: His-CRMP1 (collapsin response mediator protein 1, wild type) (natural protein)
chain: not shown
B2: His-CRMP1-D408V (natural protein)
chain: not shown

Biological target: the molecule itself
Test: native gel or EMSA

Protein	stoichiometry N
B1	4
B2	4
